Publication PMC7538599

Molecular target: GltPh, archaeal homolog of excitatory amino acid transporters from Pyrococcus horikoshii (Pyrococcus horikoshii) (UniProt O59010)
Test: high-speed atomic force microscopy (HS-AFM) imaging; purified GltPh reconstituted in DOPC/DOPE/DOPS 8:1:1 membranes, spread on mica, imaged in buffer solution in amplitude modulation mode; unlabeled protein

stoichiometry N: 3
Substance: GltPh, archaeal homolog of excitatory amino acid transporters from Pyrococcus horikoshii (from UniProt O59010 1-425) (natural protein)
